The target of this experiment is complement C3. The experiment can be described thus: SPR. For orientation: Surface plasmon resonance follows binding to a sensor surface in real time, without labels.

Broadly, the Kd is the concentration at which binding is half-saturated.

B1: recombinant HC1 (rHC1), wild type; heavy chain 1 of inter-α-inhibitor (natural protein)
chain: SKSSEKRQAVDTAVDGVFIRSLKVNCKVTSRFAHYVVTSQVVNTANEAREVAFDLEIPKTAFISDFAVTADGNAFIGDIKDKVTAWKQYRKAAISGENAGLVRASGRTMEQFTIHLTVNPQSKVTFQLTYEEVLKRNHMQYEIVIKVKPKQLVHHFEIDVDIFEPQGISKLDAQASFLPKELAAQTIKKSFSGKKGHVLFRPTVSQQQSCPTCSTSLLNGHFKVTYDVSRDKICDLLVANNHFAHFFAPQNLTNMNKNVVFVIDISGSMRGQKVKQTKEALLKILGDMQPGDYFDLVLFGTRVQSWKGSLVQASEANLQAAQDFVRGFSLDEATNLNGGLLRGIEILNQVQESLPELSNHASILIMLTDGDPTEGVTDRSQILKNVRNAIRGRFPLYNLGFGHNVDFNFLEVMSMENNGRAQRIYEDHDATQQLQGFYSQVAKPLLVDVDLQYPQDAVLALTQNHHKQYYEGSEIVVAGRIADNKQSSFKADVQAHGEGQEFSITCLVDEEEMKKLLRERGHMLENHVERLWAYLTIQELLAKRMKVDREERANLSSQALQMSLDYGFVTPLTSMSIRGMADQDGLKPTIDKPSEDSPPLEMLGPRRTFVLSALQPSPTHSSSNTQRLPDRVTGVDTD
B1 showed a Kd of 360 nM.

The values are drawn from article doi:10.1101/695700.
